Experimental data: paper PMC3988316 (Cell, 2013)
No end group written: not given here. cellulose‑PEG membrane = cellulose-PEG membrane solid support to which peptides are linked at the C-terminus as "dots"

B1: Met-Val-e^K(3–10) peptide (peptide)
peptide: MVGSGAWLLP-{cellulose‑PEG membrane}
B2: Met-Phe-e^K(3–10) peptide (peptide)
peptide: MFGSGAWLLP-{cellulose‑PEG membrane}
B3: Met-Tyr-e^K(3–10) peptide (peptide)
peptide: MYGSGAWLLP-{cellulose‑PEG membrane}
B4: Met-Trp-e^K(3–10) peptide (peptide)
peptide: MWGSGAWLLP-{cellulose‑PEG membrane}
B5: Met-Ile-e^K(3–10) peptide (peptide)
peptide: MIGSGAWLLP-{cellulose‑PEG membrane}
B6: Met-Ala-e^K(3–10) peptide (peptide)
peptide: MAGSGAWLLP-{cellulose‑PEG membrane}

What follows are binders tested against N-terminally flag-tagged full-length S. cerevisiae Ubr1 (S. cerevisiae, UniProt P19812 1-1950) (assay: peptide or protein array).
Chain of N-terminally flag-tagged full-length S. cerevisiae Ubr1 (P19812 whole entry): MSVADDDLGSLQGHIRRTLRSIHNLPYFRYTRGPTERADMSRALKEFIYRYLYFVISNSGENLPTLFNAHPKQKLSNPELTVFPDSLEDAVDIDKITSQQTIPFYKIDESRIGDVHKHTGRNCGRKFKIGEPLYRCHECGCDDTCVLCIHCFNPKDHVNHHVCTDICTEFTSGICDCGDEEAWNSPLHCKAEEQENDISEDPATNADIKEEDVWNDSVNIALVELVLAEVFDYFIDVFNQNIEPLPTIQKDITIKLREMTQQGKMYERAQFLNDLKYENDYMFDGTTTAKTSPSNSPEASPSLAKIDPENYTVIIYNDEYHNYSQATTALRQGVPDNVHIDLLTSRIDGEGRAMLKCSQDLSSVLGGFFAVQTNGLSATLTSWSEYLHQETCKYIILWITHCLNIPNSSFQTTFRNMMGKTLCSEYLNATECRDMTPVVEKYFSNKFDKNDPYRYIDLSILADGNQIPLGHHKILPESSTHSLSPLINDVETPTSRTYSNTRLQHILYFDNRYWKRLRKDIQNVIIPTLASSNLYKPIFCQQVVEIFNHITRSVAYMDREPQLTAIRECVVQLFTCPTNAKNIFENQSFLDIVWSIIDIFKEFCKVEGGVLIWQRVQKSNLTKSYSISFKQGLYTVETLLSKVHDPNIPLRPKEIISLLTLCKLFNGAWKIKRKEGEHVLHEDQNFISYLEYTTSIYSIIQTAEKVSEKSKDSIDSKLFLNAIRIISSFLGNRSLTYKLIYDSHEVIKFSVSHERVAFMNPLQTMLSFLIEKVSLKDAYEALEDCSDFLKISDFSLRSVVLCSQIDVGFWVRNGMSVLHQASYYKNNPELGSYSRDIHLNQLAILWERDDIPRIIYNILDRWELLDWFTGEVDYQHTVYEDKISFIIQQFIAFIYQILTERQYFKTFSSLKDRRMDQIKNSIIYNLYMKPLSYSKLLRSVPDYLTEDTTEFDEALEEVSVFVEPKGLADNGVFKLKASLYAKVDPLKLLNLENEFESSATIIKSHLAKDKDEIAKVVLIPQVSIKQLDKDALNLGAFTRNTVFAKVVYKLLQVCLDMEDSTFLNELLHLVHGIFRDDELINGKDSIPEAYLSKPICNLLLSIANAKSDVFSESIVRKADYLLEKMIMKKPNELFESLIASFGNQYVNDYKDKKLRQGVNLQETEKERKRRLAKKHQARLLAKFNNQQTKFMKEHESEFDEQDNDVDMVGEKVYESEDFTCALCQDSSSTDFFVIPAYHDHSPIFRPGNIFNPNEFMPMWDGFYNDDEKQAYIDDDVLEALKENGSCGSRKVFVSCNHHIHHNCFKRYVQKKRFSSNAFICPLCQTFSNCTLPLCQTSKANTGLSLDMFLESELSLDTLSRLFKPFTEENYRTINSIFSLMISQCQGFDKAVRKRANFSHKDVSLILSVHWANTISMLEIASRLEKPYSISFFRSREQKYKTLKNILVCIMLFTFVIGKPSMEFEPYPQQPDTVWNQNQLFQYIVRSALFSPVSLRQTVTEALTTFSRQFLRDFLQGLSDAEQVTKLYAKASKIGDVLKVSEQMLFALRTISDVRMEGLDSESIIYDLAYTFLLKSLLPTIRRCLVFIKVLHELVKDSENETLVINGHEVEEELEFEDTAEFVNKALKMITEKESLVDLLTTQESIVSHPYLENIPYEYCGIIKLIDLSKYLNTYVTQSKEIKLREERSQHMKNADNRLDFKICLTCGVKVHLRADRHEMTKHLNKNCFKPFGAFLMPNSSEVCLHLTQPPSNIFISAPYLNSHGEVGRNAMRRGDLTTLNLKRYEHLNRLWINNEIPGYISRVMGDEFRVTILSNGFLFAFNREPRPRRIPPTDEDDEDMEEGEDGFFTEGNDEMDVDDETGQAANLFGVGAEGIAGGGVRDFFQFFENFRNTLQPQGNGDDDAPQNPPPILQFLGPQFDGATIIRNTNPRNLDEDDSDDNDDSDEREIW
B1: binds. B2: binds. B3: binds. B4: binds. B5: binds. B6: binds.
